Where no end group is shown, it is not given here.
Target: endogenous VIP receptor of SUP-T1 cells (human)
Experiment: cell-based or functional assay

B1: VIP(1-28)-NH2 (peptide)
peptide: HSDAVFTDNYTRLRKQMAVKKYLNSILN-NH2
Q: B1 was tested. Which “cAMP Productivity in SUP-T1 Cells, Activity Intensity (%) relative to native VIP” value did it give?
A: 100%

Reference: patent US20130123460A1 (SANWA KAGAKU KENKYUSHO, published 2013)
